Reference: publication PMC3578932, “In Vitro Characterization of Echinomycin Biosynthesis: Formation and Hydroxylation of L-Tryptophanyl-S-Enzyme and Oxidation of (2S,3S) β-Hydroxytryptophan” (PLoS ONE, 2013)
Values belong to the compound of their own block, whether it stands above or below them.

Experiments:
[1] = target: A-PCP didomain NRPS protein Qui18 (Streptomyces griseovariabilis subsp. bandungensis subsp. nov) (UniProt G9JKM4); assay: SEC; copurified His6-tagged Qui5 and Qui18 from coexpression; peak at around 160 kD; fraction analysed by SDS-PAGE (data not shown); conditions: scale: subunits of Qui5 with 2 subunits of Qui18
[2] = target: T1, Qui5 and holo-Qui18 coexpression product (complex) (Streptomyces griseovariabilis, UniProt G9JKM4); assay: Q-TOF-MS of amino acid loading onto holo-Qui18; assay type: biochemical; conditions: covalent; thioester to 4'-phosphopantetheine of the PCP domain; 5 mM L-tryptophan, 5 mM ATP, 10 mM MgCl2, 2 mM DTT, pH 8.0, 27°C, 2 hr
T1 construct: full-length A-PCP didomain Qui18 (611 aa) and Qui5 (71 aa), both His6-tagged, coexpressed in E. coli BL21(DE3) with B. subtilis sfp; holo form 64,836 Da (4'-phosphopantetheine on PCP Ser); hetero-tetramer about 160 kD; with MbtH-like protein

[3] = target: tryptophan 2,3-dioxygenase Qui17 (Streptomyces griseovariabilis subsp. bandungensis subsp. nov); assay: SEC; purified His-tagged Qui17; data not shown

stoichiometry N [1]: 2
Compound: MbtH-like protein Qui5 (natural protein)

Compound: N[C@@H](Cc1c[nH]c2ccccc12)C(=O)O [L-tryptophan]
Q-TOF-MS of amino acid loading onto holo-Qui18 [2]: Qui18 recognized L-tryptophan as its substrate and its function depended on the association with Qui5

stoichiometry N [3]: 4
Compound: tryptophan 2,3-dioxygenase Qui17 (enzyme)
